# Data published in article doi:10.1101/2022.03.12.484092.
# Target: SARS-CoV-2 nucleocapsid N-terminal domain (NTD) (SARS-CoV-2, UniProt P0DTC9 41-174)
# Test: fluorescence intensity titration
binder,measurement,value
UCUCUAAACG (ssRNA) [10-mer RNA],binding result,binds
